The target in the assay is eGFP-myc-Orai1 (UniProt Q96D31). Briefly: cell-based or functional assay.
Sequence of eGFP-myc-Orai1 (Q96D31 whole entry): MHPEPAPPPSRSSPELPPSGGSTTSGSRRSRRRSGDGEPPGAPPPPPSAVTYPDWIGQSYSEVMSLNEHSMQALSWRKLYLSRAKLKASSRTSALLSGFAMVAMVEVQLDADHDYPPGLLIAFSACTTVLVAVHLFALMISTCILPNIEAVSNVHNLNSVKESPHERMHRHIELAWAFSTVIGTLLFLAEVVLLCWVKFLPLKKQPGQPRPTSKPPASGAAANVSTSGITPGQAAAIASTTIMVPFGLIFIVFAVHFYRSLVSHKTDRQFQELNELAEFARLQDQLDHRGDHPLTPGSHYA

In the case of mCh-CAD (from UniProt Q13586 342-448), the diffusion coefficient fitted to FRAP of a single cell expressing eGFP-Orai1 with CAD was found to be 0.026 µm^2/s; the effective diffusion coefficient (D) of GFP-Orai1 co-expressed with CAD, FRAP in HEK 293 cells stood at 0.036 µm^2/s; the mobile fraction of GFP-Orai1 co-expressed with CAD, FRAP came out at 87%; the slowing of Orai1 diffusion by CAD, FRAP was determined as 2 fold.

Source of the values: patent publication US20120165265A1, “Calcium Signaling Modulators Involving STIM and ORAI Proteins” (priority 2009, published 2012).
